Test results as given in US20180155451A1 (published 2018).

T1: FcγRIIa H (FcγRIIa, type H allotype, His at position 131), extracellular domain with C-terminal His tag (human, UniProt P12318 34-217)
T1 construct: extracellular domain; Soluble receptor expressed in FreeStyle293 cells; analyte in Biacore; also called FcgRIIa H; 2aH; not shown: C-terminal His tag
T1 sequence (looked up): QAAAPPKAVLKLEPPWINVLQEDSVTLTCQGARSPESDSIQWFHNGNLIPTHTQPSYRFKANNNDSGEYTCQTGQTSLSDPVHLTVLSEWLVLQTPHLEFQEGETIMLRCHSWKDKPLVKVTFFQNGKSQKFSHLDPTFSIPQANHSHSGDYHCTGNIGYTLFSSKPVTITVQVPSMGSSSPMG

T2: FcγRIIb, extracellular domain with C-terminal His tag (human, UniProt P31994 43-217)
T2 construct: extracellular domain; Soluble receptor expressed in FreeStyle293 cells; analyte in Biacore; also called FcgRIIb; 2b; not shown: C-terminal His tag
T2 sequence (looked up): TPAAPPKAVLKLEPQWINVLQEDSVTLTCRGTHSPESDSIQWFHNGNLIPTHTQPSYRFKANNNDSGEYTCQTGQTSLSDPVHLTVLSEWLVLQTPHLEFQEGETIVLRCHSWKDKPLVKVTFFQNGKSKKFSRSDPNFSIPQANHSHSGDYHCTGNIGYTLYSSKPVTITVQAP

T3: FcγRIIb (human, UniProt P31994 43-217)
T3 construct: extracellular domain; Soluble extracellular domain with C-terminal His tag, used as analyte in Biacore; also called FcgRIIb; 2b; not shown: His tag attached to the C terminus
T3 sequence (looked up): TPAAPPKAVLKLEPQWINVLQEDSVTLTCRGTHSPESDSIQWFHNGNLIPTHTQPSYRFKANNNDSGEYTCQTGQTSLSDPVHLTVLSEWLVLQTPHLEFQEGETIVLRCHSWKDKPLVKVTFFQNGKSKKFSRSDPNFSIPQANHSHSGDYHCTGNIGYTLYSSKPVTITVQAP


Tests used:
[1] = target: T1, FcγRIIa H (FcγRIIa, type H allotype, …); assay: ratio of He/Con_2aH to He/Con_2b (FcγRIIa H over FcγRIIb), SPR
[2] = target: T2, FcγRIIb, extracellular domain with …; assay: SPR (Biacore), captured antibody, FcγR as analyte
[3] = target: T1, FcγRIIa H (FcγRIIa, type H allotype, …); assay: SPR (Biacore), captured antibody, FcγR as analyte
[4] = target: T4, FcγRIa (human, UniProt P12314 16-292); assay: SPR (Biacore), antibody captured on antigen peptide, FcγR as analyte; relative to GpH7-A5/GpH7-B3/GpL16-k0 = 100
T4 construct: extracellular domain; Soluble extracellular domain with C-terminal His tag, used as analyte in Biacore; also called FcgRI; 1a; not shown: His tag attached to the C terminus

[5] = target: T3, FcγRIIb; assay: as above

T4 sequence (P12314 16-292): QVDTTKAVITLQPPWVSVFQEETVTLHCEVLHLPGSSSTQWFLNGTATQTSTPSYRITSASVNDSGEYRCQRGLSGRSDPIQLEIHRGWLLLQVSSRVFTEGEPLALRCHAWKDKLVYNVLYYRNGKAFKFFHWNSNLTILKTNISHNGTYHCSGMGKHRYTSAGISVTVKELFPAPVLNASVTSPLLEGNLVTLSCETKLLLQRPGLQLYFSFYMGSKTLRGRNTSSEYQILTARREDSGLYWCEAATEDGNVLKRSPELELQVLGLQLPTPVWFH

He_2aH/2b (IIaH/IIb) [1] | He/Con_2b [2] | He/Con_2aH [3] | He/Con_1a [4] | He/Con_2b [5] | Binder
 |  |  | 93.2 % of control | 143 % of control | GpH7-A5/GpH7-B3 variant N325_04F/GpL16-k0 (antibody, human IgG1, kappa, Heterodimerized IgG1; mutation in the GpH7-B3 H chain only; also called He Ab) heavy 1: not shown heavy 2: not shown light: DIVMTQSPLSLPVTPGEPASISCQASESLVHSNRNTYLHWYLQKPGQSPQLLIYKVSNRFSGVPDRFSGSGSGTDFTLKISRVEAEDVGVYYCSQNTHVPPTFGQGTKVEIERTVAAPSVFIFPPSDEQLKSGTASVVCLLNNFYPREAKVQWKVDNALQSGNSQESVTEQDSKDSTYSLSSTLTLSKADYEKHKVYACEVTHQGLSSPVTKSFNRGEC
1.33 | 73.9 relative, GpH7-A5/GpH7-B3/GpL16-k0 = 100 | 98 relative, GpH7-A5/GpH7-B3/GpL16-k0 = 100 |  |  | GpH7-A5/GpH7-B3 variant Y300_03V/GpL16-k0 (antibody, human IgG1, kappa, Heterodimerized IgG1; mutation only in the GpH7-B3 chain; also called He Ab) heavy 1: not shown heavy 2: not shown light: DIVMTQSPLSLPVTPGEPASISCQASESLVHSNRNTYLHWYLQKPGQSPQLLIYKVSNRFSGVPDRFSGSGSGTDFTLKISRVEAEDVGVYYCSQNTHVPPTFGQGTKVEIERTVAAPSVFIFPPSDEQLKSGTASVVCLLNNFYPREAKVQWKVDNALQSGNSQESVTEQDSKDSTYSLSSTLTLSKADYEKHKVYACEVTHQGLSSPVTKSFNRGEC
1.3 | 51.6 relative, GpH7-A5/GpH7-B3/GpL16-k0 = 100 | 66.9 relative, GpH7-A5/GpH7-B3/GpL16-k0 = 100 |  |  | GpH7-A5/GpH7-B3 variant Y300_11K/GpL16-k0 (antibody, human IgG1, kappa, Heterodimerized IgG1; mutation only in the GpH7-B3 chain; also called He Ab) heavy 1: not shown heavy 2: not shown light: DIVMTQSPLSLPVTPGEPASISCQASESLVHSNRNTYLHWYLQKPGQSPQLLIYKVSNRFSGVPDRFSGSGSGTDFTLKISRVEAEDVGVYYCSQNTHVPPTFGQGTKVEIERTVAAPSVFIFPPSDEQLKSGTASVVCLLNNFYPREAKVQWKVDNALQSGNSQESVTEQDSKDSTYSLSSTLTLSKADYEKHKVYACEVTHQGLSSPVTKSFNRGEC

The remaining lines, values behind:

Binder | He_2aH/2b (IIaH/IIb) [1] | He/Con_2b [2] | He/Con_2aH [3] | He/Con_1a [4] | He/Con_2b [5]
GpH7-A5/GpH7-B3 variant Y300_01G/GpL16-k0 (antibody, human IgG1, kappa, Heterodimerized IgG1; mutation only in the GpH7-B3 chain; also called He Ab) heavy 1: not shown heavy 2: not shown light: DIVMTQSPLSLPVTPGEPASISCQASESLVHSNRNTYLHWYLQKPGQSPQLLIYKVSNRFSGVPDRFSGSGSGTDFTLKISRVEAEDVGVYYCSQNTHVPPTFGQGTKVEIERTVAAPSVFIFPPSDEQLKSGTASVVCLLNNFYPREAKVQWKVDNALQSGNSQESVTEQDSKDSTYSLSSTLTLSKADYEKHKVYACEVTHQGLSSPVTKSFNRGEC | 1.54 | 48.4 relative, GpH7-A5/GpH7-B3/GpL16-k0 = 100 | 74.4 relative, GpH7-A5/GpH7-B3/GpL16-k0 = 100 |  | 
GpH7-A5/GpH7-B3 variant Y300_06M/GpL16-k0 (antibody, human IgG1, kappa, Heterodimerized IgG1; mutation only in the GpH7-B3 chain; also called He Ab) heavy 1: not shown heavy 2: not shown light: DIVMTQSPLSLPVTPGEPASISCQASESLVHSNRNTYLHWYLQKPGQSPQLLIYKVSNRFSGVPDRFSGSGSGTDFTLKISRVEAEDVGVYYCSQNTHVPPTFGQGTKVEIERTVAAPSVFIFPPSDEQLKSGTASVVCLLNNFYPREAKVQWKVDNALQSGNSQESVTEQDSKDSTYSLSSTLTLSKADYEKHKVYACEVTHQGLSSPVTKSFNRGEC | 1.24 | 84.3 relative, GpH7-A5/GpH7-B3/GpL16-k0 = 100 | 105 relative, GpH7-A5/GpH7-B3/GpL16-k0 = 100 |  | 
GpH7-A5/GpH7-B3 variant N325_01G/GpL16-k0 (antibody, human IgG1, kappa, Heterodimerized IgG1; mutation in the GpH7-B3 H chain only; also called He Ab) heavy 1: not shown heavy 2: not shown light: DIVMTQSPLSLPVTPGEPASISCQASESLVHSNRNTYLHWYLQKPGQSPQLLIYKVSNRFSGVPDRFSGSGSGTDFTLKISRVEAEDVGVYYCSQNTHVPPTFGQGTKVEIERTVAAPSVFIFPPSDEQLKSGTASVVCLLNNFYPREAKVQWKVDNALQSGNSQESVTEQDSKDSTYSLSSTLTLSKADYEKHKVYACEVTHQGLSSPVTKSFNRGEC |  |  |  | 97.1 % of control | 101 % of control
GpH7-A5/GpH7-B3 variant G236_10E/GpL16-k0 (antibody, human IgG1, kappa, Heterodimerized IgG1; mutation in the GpH7-B3 H chain only; also called He Ab) heavy 1: not shown heavy 2: not shown light: DIVMTQSPLSLPVTPGEPASISCQASESLVHSNRNTYLHWYLQKPGQSPQLLIYKVSNRFSGVPDRFSGSGSGTDFTLKISRVEAEDVGVYYCSQNTHVPPTFGQGTKVEIERTVAAPSVFIFPPSDEQLKSGTASVVCLLNNFYPREAKVQWKVDNALQSGNSQESVTEQDSKDSTYSLSSTLTLSKADYEKHKVYACEVTHQGLSSPVTKSFNRGEC |  |  |  | 93.7 % of control | 110 % of control
GpH7-A5/GpH7-B3 variant L234_20W/GpL16-k0 (antibody, human IgG1, kappa, Heterodimerized IgG1; mutation in the GpH7-B3 H chain only; also called He Ab) heavy 1: not shown heavy 2: not shown light: DIVMTQSPLSLPVTPGEPASISCQASESLVHSNRNTYLHWYLQKPGQSPQLLIYKVSNRFSGVPDRFSGSGSGTDFTLKISRVEAEDVGVYYCSQNTHVPPTFGQGTKVEIERTVAAPSVFIFPPSDEQLKSGTASVVCLLNNFYPREAKVQWKVDNALQSGNSQESVTEQDSKDSTYSLSSTLTLSKADYEKHKVYACEVTHQGLSSPVTKSFNRGEC |  |  |  | 98.6 % of control | 114 % of control
